Data: publication PMC4940141 (Nature, 2016)

How the values were obtained:
Assay in all cases: cryo-EM structure
TBP = TBP (human, UniProt P20226 1-339)
RPB2 = RPB2 (human (endogenous in HeLa), UniProt P30876 1-1174)
RPB1 = RPB1 (human (endogenous in HeLa), UniProt P24928 1-1970)

Sequence of TBP (P20226 whole entry): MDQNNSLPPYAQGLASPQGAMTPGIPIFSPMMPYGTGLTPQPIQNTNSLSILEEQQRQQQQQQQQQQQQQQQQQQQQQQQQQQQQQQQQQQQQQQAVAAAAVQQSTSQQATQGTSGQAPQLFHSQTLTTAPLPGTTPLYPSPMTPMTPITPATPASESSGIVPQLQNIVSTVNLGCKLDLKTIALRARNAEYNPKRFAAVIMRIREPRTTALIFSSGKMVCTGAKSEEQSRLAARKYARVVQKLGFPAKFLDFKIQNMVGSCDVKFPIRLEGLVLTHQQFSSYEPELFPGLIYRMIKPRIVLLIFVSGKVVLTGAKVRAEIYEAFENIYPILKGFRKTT

B1: RAP30 (natural protein, human)
chain: MAERGELDLTGAKQNTGVWLVKVPKYLSQQWAKASGRGEVGKLRIAKTQGRTEVSFTLNEDLANIHDIGGKPASVSAPREHPFVLQSVGGQTLTVFTESSSDKLSLEGIVVQRAECRPAASENYMRLKRLQIEESSKPVRLSQQLDKVVTTNYKPVANHQYNIEYERKKKEDGKRARADKQHVLDMLFSAFEKHQYYNLKDLVDITKQPVVYLKEILKEIGVQNVKGIHKNTWELKPEYRHYQGEEKSD
What does the source list for B1?
binding result (TBP): binds; binding result (RPB2): binds

B2: TFIIEα (natural protein)
chain: MADPDVLTEVPAALKRLAKYVIRGFYGIEHALALDILIRNSCVKEEDMLELLKFDRKQLRSVLNNLKGDKFIKCRMRVETAADGKTTRHNYYFINYRTLVNVVKYKLDHMRRRIETDERDSTNRASFKCPVCSSTFTDLEANQLFDPMTGTFRCTFCHTEVEEDESAMPKKDARTLLARFNEQIEPIYALLRETEDVNLAYEILEPEPTEIPALKQSKDHAATTAGAASLAGGHHREAWATKGPSYEDLYTQNVVINMDDQEDLHRASLEGKSAKERPIWLRESTVQGAYGSEDMKEGGIDMDAFQEREEGHAGPDDNEEVMRALLIHEKKTSSAMAGSVGAAAPVTAANGSDSESETSESDDDSPPRPAAVAVHKREEDEEEDDEFEEVADDPIVMVAGRPFSYSEVSQRPELVAQMTPEEKEAYIAMGQRMFEDLFE
Does B2 bind (RPB1)?
Result: binds
